Data on 7 molecules can be found in patent US20170029530A1 (AbbVie / Abbott, published 2017).

Broadly, the Kd is a measure of binding affinity in units of concentration.

The target in assay [1] is T1, rat DPEP3 ECD with histidine tag (rat, UniProt Q5U2X4 36-459, limits assumed).
T1 construct: also called rDPEP3-His; ratDPEP3-His; not shown: histidine tag
T1 sequence: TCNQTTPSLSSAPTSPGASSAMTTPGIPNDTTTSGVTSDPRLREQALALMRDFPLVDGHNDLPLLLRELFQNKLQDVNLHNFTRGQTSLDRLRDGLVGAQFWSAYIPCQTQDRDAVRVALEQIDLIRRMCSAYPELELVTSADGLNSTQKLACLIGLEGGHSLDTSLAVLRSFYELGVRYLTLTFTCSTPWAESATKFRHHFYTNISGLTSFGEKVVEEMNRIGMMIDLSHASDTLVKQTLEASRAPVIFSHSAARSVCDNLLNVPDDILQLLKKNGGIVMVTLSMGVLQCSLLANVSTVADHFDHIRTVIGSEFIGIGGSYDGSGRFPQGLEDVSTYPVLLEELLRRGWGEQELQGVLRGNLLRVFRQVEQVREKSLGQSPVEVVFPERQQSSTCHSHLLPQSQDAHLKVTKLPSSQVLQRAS
Kind of assay: ELISA, coated antigen. On the procedure:
(§1) The anti-DPEP3 antibodies were screened by ELISA for cross-reactivity with mouse, rat and cynomolgus DPEP3 and for cross reactivity to hDPEP2, the closest DPEP3 family member. ELISA was conducted as follows. Plates were coated with purified mouse, rat or cynomolgus DPEP3-His or hDPEP2-His at 0.3 μg/mL in 0.2 M carbonate-bicarbonate buffer, pH 9.4 overnight at 4° C. The protein solution was removed and the wells were blocked with 1% (w/v) BSA in PBS (PBSA), 100 μL/well for 1 hour at 37° C. Anti-DPEP3 antibody or a mouse isotype control antibody was then added at 1 μg/mL in 50 μL PBSA for 1 hour at room temperature. After washing with water, 50 μL/well HRP-labeled goat anti-mouse IgG antibody diluted 1:10,000 in PBSA was added for 30 min at room temperature. The plates were washed and developed by the addition of 40 μL/well of the TMB substrate solution (Thermo Scientific) at room temperature. An equal volume of 0.2 M H₂SO₄ was added to stop substrate development. The samples were then analyzed by spectrophotometer at OD 450. […] The cross reactivity results for exemplary DPEP3-specific antibodies can be seen in FIG. 4.
In general terms: ELISA stands for enzyme-linked immunosorbent assay.

The target of assay [2] is T2, hDPEP2 ECD with histidine tag (human, UniProt Q9H4A9 33-463).
T2 construct: also called hDPEP2-His; not shown: histidine tag
Kind of assay: ELISA, coated antigen. Here is the method: as §1

For another assay, the target named is T3, mDPEP3 (limits assumed).
T3 construct: also called mouse DPEP3-His; mouse DPEP3 ECD with histidine tag
T3 single chain: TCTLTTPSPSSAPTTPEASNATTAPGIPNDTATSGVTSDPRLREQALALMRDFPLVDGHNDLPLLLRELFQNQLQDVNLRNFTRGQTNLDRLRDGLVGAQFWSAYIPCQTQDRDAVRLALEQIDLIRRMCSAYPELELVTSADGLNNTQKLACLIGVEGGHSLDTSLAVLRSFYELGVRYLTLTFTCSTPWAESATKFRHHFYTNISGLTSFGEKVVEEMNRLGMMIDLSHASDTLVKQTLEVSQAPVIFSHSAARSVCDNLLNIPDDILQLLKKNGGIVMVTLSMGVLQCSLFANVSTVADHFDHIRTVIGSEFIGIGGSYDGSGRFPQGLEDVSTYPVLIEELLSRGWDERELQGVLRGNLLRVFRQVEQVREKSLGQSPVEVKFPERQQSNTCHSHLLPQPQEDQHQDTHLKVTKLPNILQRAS
Kind of assay: ELISA, coated antigen. On the procedure: as §1

The next assay deals with T4, cDPEP3 (Macaca fascicularis, UniProt Q4R7M2).
T4 construct: extracellular domain; also called cynomolgus DPEP3-His; cynomolgus DPEP3 ECD with histidine tag
T4 sequence (single chain, looked up): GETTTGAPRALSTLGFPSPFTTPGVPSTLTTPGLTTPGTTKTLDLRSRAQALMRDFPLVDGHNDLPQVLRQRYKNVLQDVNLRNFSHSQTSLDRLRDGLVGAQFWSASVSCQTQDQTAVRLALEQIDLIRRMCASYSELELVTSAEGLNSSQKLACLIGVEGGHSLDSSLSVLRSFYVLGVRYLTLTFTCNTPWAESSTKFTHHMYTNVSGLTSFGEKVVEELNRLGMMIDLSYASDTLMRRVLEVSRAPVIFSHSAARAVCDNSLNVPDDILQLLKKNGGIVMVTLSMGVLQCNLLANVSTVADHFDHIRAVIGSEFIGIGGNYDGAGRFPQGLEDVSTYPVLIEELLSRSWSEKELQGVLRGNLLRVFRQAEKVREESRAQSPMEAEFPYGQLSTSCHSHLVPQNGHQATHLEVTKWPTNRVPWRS
As to the kind of experiment: ELISA, coated antigen. Here is the method: as §1

The target in the next assay is T5, hDPEP3-ECD-His (human, UniProt Q9H4B8 36-463).
T5 construct: also called hDPEP3-His; monomeric hDPEP3-His antigen; not shown: histidine tag
T5 sequence: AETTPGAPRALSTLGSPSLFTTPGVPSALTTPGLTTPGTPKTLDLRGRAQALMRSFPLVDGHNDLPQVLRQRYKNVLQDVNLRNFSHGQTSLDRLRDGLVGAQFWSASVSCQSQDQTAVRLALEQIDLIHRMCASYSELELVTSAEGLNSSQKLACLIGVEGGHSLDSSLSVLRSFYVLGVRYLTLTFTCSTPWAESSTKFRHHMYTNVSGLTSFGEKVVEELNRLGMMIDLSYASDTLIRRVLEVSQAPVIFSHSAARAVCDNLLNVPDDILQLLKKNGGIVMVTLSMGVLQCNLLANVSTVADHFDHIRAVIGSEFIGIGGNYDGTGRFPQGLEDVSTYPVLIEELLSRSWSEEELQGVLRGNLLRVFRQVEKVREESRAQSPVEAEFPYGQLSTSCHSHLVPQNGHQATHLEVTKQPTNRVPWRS
As to the kind of experiment: BLI ForteBio RED, 200 nM hDPEP3-His, estimated grade. On the procedure:
The affinity of the antibodies for hDPEP3-His was qualitatively determined from kinetics curves generated with a ForteBio RED as follows. Anti-DPEP3 antibodies were immobilized onto anti-mouse Fc capture biosensors with a contact time of 3 mins. and a flow rate of 1000 rpm. The captured antibody loading from baseline was constant at 0.3-1 units. Following antibody capture and 30 second baseline, the biosensors were dipped into a 200 nM solution of hDPEP3-His for a 4 min. association phase followed by a 3 min. dissociation phase at a shaking rate of 1000 rpm. The biosensors were regenerated by dipping into 10 mM glycine, pH 1.7 following each cycle. The data was processed by subtracting a control mouse IgG surface response from the specific antibody response and data was truncated to the association and dissociation phase. The association and dissociation curves were used to qualitatively estimate the affinities of selected antibodies. […] A designation of “ND” means that the estimated KD was not determined.

T2 sequence (Q9H4A9 33-463): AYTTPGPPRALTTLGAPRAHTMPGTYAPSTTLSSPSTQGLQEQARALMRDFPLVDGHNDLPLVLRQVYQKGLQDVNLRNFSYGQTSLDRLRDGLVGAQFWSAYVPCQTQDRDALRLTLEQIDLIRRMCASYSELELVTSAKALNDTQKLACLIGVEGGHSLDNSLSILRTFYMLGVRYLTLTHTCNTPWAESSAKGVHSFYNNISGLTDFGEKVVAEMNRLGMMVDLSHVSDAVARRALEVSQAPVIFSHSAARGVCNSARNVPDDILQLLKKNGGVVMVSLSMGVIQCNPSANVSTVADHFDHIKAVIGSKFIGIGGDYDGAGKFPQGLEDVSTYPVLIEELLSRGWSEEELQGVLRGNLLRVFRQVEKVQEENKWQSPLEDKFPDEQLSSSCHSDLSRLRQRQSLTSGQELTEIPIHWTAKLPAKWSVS

B1: SC34.39 (antibody, mouse IgG2a, V domains shown)
VH: QVQLQQSGAELMKPGASVKISCKATGYTFSNYWIEWVKQRPGHGLEWIGEILPGSDSTYFNEKFKGKATFTADTSSNTAYMQLSSLTSEDSAVYYCTIRSAAYYSNPEWFAYWGQGTLVTVSA
VL: QIVLTQSPAIMSASQGERVTMTCTASSSVSSNYLHWYQQKPGSSPKLWIYSTSHLASGVPVRFSGSGSGTSYSLTISSMEAEDAATYYCHQYHRSPYTFGGGTKLEIK
Turning to B1, the binding result (in assay [1]; in assay [2]; with mDPEP3; with cDPEP3) was “no binding (tested: 1 ug/mL)” throughout. In addition, in the assay with hDPEP3-ECD-His, the Kd is less than 5 nM.

B2: SC34.14 (antibody, mouse IgG1, V domains shown)
VH: EVQLQQSGPEMVKPGASVKISCKASGYIFTDYYMHWVKQSHGESLDWIGRVNPKKGGTTYNQKFEGKAILTVDKSSSTAYMDLNSLTSEDSAVYYCAMGIYYSYDASFDYWGQGTTLTVSS
VL: DIQMTQAPASLSPSVGATVTITCRTSEHIYSYLAWYQQKQGKSPRLLVYNAKTLAEGVSSRFSGSGSGTQFSLQINSLQPEDFGNYYCQHHYDTPYTFGGGTKLEIK
In the case of B2, the binding result (in assay [1]; with mDPEP3; in the assay with cDPEP3) was “no binding (tested: 1 ug/mL)” each time. Further, in the assay with hDPEP3-ECD-His, the dissociation constant (Kd) is less than 5 nM.

B3: SC34.48 (antibody, mouse IgG1, V domains shown)
VH: EVQLQQSGLEMVKPGASVKISCKASGYIFTDYYMHWVKQSHGKSLDWIGRVNPKKGGTTYNQKFEGKATLTVDKSSSTAYMDLNSLTSEDSAVYYCAMGIYFSYDASFDYWGQGTTLTVSS
VL: DIQMTQAPASLSASVGETVTITCRTSGHIYSYLAWYQQKQGKSPQLLVYNAKTLAEGVSSRFSGSGSGTQFSLKITSLQPEDFGDYYCQHHYDTPYTFGGGTKLEIK
On to B3, for which the binding result (in assay [1]; in the assay with mDPEP3; with cDPEP3) was “no binding (tested: 1 ug/mL)” throughout. Also, the Kd with hDPEP3-ECD-His is less than 5 nM.

B4: SC34.71 (antibody, mouse IgG2a, V domains shown)
VH: QVSLKESGPGILQPSQTLSLTCSFFGFSLSTSSMGVGWIRQPSGKGLEWLANIWWDNNKYYNAALKSRLTISKDTSKNQVFLNIASVDTTDTATYYCARIESYYSNRAWFPYWGRGTLVTVSA
VL: DIVMTQSQKFMSTSVGDRVSITCKASQNVRTAVAWYQQKPGQSPKTLIYLASNRHTGVPDRFTGSGSGTDFTLTISYVQSEDLADYFCLQHLNYPWTFGGGTKLEIK
As for B4, the binding result (in assay [1]; in assay [2]; with mDPEP3; with cDPEP3) was “no binding (tested: 1 ug/mL)” throughout. The Kd with hDPEP3-ECD-His is less than 5 nM.

B5: SC34.5 (antibody, mouse IgG1, V domains shown)
VH: EVQLQQSGPELVKPGASMKISCKASGYSFTGYTMNWVKQSHGKNLEWIGLIYPYNDDTRYKQKFKGKATLTVDKSSSTAYMELLSLTSEDSAVYYCTRGYYGSPYFDVWGAGTTVTVSS
VL: DIVMTQFPSSLAMSVGQKVTMNCKSSQSLLNSSNQKNYLAWFQQKPGQSPKLLVYFASTRESGVPDRFLGSGSGTDFTLTISSVQAEDLADYFCQQHYSTPFTFGSGTKLEIK
notes: also called SC34.05
Regarding B5, the binding result (in assay [1]; in assay [2]; with mDPEP3; with cDPEP3) was “no binding (tested: 1 ug/mL)” throughout. Further, the Kd in the assay with hDPEP3-ECD-His was less than 5 nM.

B6: SC34.6 (antibody, mouse IgG1, V domains shown)
VH: EVQLQQSGPELVKPGTSMKISCKASGYSFTGYTMNWVKQSHGKNLEWIGLIYPYNDDTRYNRKFKGKATLTVDKSSNTAYMELLSLTSVDSAVCYCARGSYGSPFFDVWGAGTTVTVSS
VL: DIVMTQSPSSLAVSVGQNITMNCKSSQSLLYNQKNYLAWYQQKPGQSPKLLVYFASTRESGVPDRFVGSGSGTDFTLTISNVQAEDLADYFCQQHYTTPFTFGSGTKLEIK
notes: also called SC34.06
As to B6, the binding result (in assay [1]; in assay [2]; with mDPEP3; with cDPEP3) was “no binding (tested: 1 ug/mL)” in each case. For the same molecule, the Kd with hDPEP3-ECD-His was less than 5 nM.

B7: SC34.78 (antibody, mouse IgG1, V domains shown)
VH: DVQLQESGRGLVKPSQSLSLTCTVTGYSLTSDFAWNWIRQFPGNKLEWMGYIRYSGTTSYNPSLKSRISITRDTSKNQFFLQLNSVTTEDTATYYCGYGNYGYAMDYWGQGTSVTVSS
VL: DIMMTQSPATLSVTPGDRVSLSCRASQSIGAYLHWYQQKSHESPRLLIKYVSQSISGIPSRFSGSGSGSDFTLSINSVEPEDVGVYYCQNGHSFPLTFGAGTKLELK
Turning to B7, the binding result (in assay [1]; in assay [2]; with mDPEP3; with cDPEP3) was “no binding (tested: 1 ug/mL)” in each case. Further, the Kd in the assay with hDPEP3-ECD-His was more than 10 nM.
